Experiment [1] concerns the target tandem tudor domain (TTD) of UHRF1. Kind of experiment: fluorescence polarisation. On the technique in general: In fluorescence polarisation assays a small probe gives low polarisation when free and higher when bound to something large.
Experiment [2] has the same target. Kind of experiment: AlphaScreen or HTRF. A general note: Bead proximity is the source of the signal in Alpha formats.

No end group written: not given here. Me3 = tri-methyl on lysine side chain

In general, IC50 refers to the midpoint of a concentration-inhibition curve. Low readings indicate inhibition by little substance, high ones a need for much substance.

For the molecule ARTKQTARKSTGEW (here or on the partner: trimethyl-lysine at K9) [H3K9me3 competition peptide (high affinity competitor)], the IC50 in experiment [1] amounted to 12 µM; in experiment [2], 6 µM.
As for ARTK(Me3)QTARKSTGEW [H3K4me3 competition peptide (low affinity competitor)], the IC50 in experiment [2] amounted to 95 µM.

For the origin of these results see PMC4467374.
